Laboratory results taken from patent US20030157553A1 (published 2003).
Substitutions are numbered along the chain they refer to. One block for each binder: values may come before it.

Target: T1, phosphorylated β2-adrenergic receptor (agonist-activated) (UniProt P07550 1-413, limits assumed, phosphorylated (sites and kinase not stated for the experiment))
T1 construct: Phosphorylated form of the purified, reconstituted β2AR; also called P-β2AR
Assay: agonist affinity shift assay, [125I]iodopindolol displacement by agonist with saturating (1 µM) purified arrestin, P-β2AR
Experimental: Agonist Affinity ShiftAssay—P-β₂AR or β₂AR (10-15 fmol/assay) was incubated in 0.25 ml of 10 mM Tris-HCl, pH 7.4, 100 mM NaCl (buffer A) containing 0.1 mg/ml bovine serum albumin in the presence of 65-75 fmol of [¹²⁵I] iodopindolol (NEN Life Science Products) and the indicated concentrations of arrestins and agonists for 60 min at 22° C. Samples were then cooled on ice and loaded at 4° C. onto 2 ml of Sephadex G-50 columns. Receptor-containing liposomes with bound radioligand were eluted with buffer A (between 0.6 and 1.5 ml), and radioactivity was quantitated in a liquid scintillation counter. Nonspecific binding was determined in the presence of 10 μM alprenolol. All experiments were repeated two to three times, and data are presented as means ±S.D.
It was recently reported that arrestin-receptor complex is similar to G protein-receptor complex in two respects: agonists have higher affinity for arrestin-receptor complex than for receptor alone, and only a fraction of the receptors forms such a high agonist affinity complex (HAC) even at saturating concentrations of arrestin (Gurevich et al. (1997) supra). The maximum percentage of the receptor in HAC gives a good estimate of the propensity of a given arrestin protein to bind tightly to the receptor (arrestin competency) Gurevich et al. (1997) supra)). […]

percentage of receptor in high agonist affinity complex (HAC): 31%
B1: wild type bovine β-arrestin (other)
chain: MGDKGTRVFKKASPNGKLTVYLGKRDFVDHIDLVEPVDGVVLVDPEYLKERRVYVTLTCAFRYGREDLDVLGLTFRKDLFVANVQSFPPAPEDKKPLTRLQERLIKKLGEHAYPFTFEIPPNLPCSVTLQPGPEDTGKACGVDYEVKAFCAENLEEKIHKRNSVRLVIRKVQYAPERPGPQPTAETTRQFLMSDKPLHLEASLDKEIYYHGEPISVNVHVTNNTNKTVKKIKISVRQYADICLFNTAQYKCPVAMEEADDTVAPSSTFCKVYTLTPFLANNREKRGLALDGKLKHEDTNLASSTLLREGANREILGIIVSYKVKVKLVVSRGGLLGDLASSDVAVELPFTLMHPKPKEEPPHREVPEHETPVDTNLIELDTNDDDIVFEDFARQRLKGMKDDKEEEEDGTGSPRLNDR
notes: Full-length wild type from construct pBARR; also called wild type β-arrestin; bovine β-arrestin 1A

percentage of receptor in high agonist affinity complex (HAC): 52%
B2: β-arrestin-(Arg169→Glu) (other)
chain: B1 chain with R169E
notes: Bovine β-arrestin point mutant made in pBARR
